Reference: patent US20240117030A1 (Pfizer, published 2024)

Legend:
[1] = target: T1, human IL-4 (human, UniProt P05112 25-153); test: cell-based or functional assay
T1 sequence (looked up): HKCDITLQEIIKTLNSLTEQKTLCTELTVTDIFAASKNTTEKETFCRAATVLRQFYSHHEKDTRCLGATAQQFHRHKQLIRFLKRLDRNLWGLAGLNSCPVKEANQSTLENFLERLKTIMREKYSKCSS

[2] = target: T2, cynomolgus monkey IL-13 (cynomolgus monkey, UniProt Q0PW92 19-132); test: cell-based or functional assay
[3] = target: human IL-13 (human, UniProt P35225 35-146); test: cell-based or functional assay
[4] = target: T2, cynomolgus monkey IL-13; test: KinExA, fixed antigen
Protocol: (§1) Samples were prepared in PBS containing 0.1% sodium azide and 1.0 mg/ml BSA. The fixed antigen assay method was used to determine binding affinity. […] Each trispecific and IL-4 cytokine were equilibrated for at least 72 hours at room temperature, then passed through a flow cell containing Polymethylmethacrylate (PMMA) beads coated with anti-hIL-4 Ab-0002 (Pfizer) that contains the same IL-4 binding domain as the trispecifics. […] Data analysis was performed with KinExA Pro software version 4.3.11 (Sapidyne). […] The ‘drift correction’ fitting option was used when responses varied between replicate injections. Two curves were obtained in independent experiments and analyzed using the ‘n-curve analysis’ tool to obtain global best fit values for the KD and active concentration of IL-4 cytokine. The software reports each best fit value along with a 95% confidence interval.
(§2) Samples were prepared in PBS containing 0.1% sodium azide and 1.0 mg/ml BSA. A fixed antigen assay method was used to determine binding affinity.

[5] = target: T3, cynomolgus monkey IL-4 (cynomolgus monkey, UniProt P79339 25-153); test: KinExA, fixed antigen
T3 construct: mature; also called cy IL-4; cyno IL-4
T3 sequence (looked up): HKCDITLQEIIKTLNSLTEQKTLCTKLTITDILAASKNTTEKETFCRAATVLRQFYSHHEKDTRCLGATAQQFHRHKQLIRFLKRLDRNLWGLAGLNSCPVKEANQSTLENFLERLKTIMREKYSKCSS
Protocol: as §1, §2

[6] = target: T4, mouse IL-4 (mouse, UniProt P07750 23-140); test: SPR (Biacore 8K+), trispecific captured on anti-human Fc on a CM5 chip, 200 nM IL-4 injected for 60 s
T4 construct: also called mu IL-4
T4 sequence (looked up): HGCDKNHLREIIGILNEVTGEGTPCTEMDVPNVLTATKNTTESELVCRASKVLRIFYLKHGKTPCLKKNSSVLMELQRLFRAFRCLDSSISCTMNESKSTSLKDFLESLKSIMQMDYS
Protocol: (§3) All experiments were performed using a Biacore 8K+instrument (GE HealthCare, Marlborough, MA). Anti-human Fc (Jackson Immunoresearch) or anti-mouse Fc (GE HealthCare, Marlborough, MA) was immobilized on a CM5 sensor chip using a standard amine coupling protocol provided by GE HealthCare. […] The association and dissociation phases were 60 seconds and 300 seconds, respectively. At the end of the dissociation phase, the surface containing anti-human or anti-mouse Fc was regenerated using one 30 second pulse of 3M MgCl₂ followed by one 30 second pulse of 10 mM glycine pH 1.7.

[7] = target: T5, rat IL-4 (rat, UniProt P20096 25-147, limits assumed); test: as above
T5 construct: also called rt IL-4
T5 sequence (looked up): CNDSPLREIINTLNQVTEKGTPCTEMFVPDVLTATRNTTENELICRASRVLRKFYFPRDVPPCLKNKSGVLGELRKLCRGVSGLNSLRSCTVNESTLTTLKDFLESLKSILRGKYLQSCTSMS
Protocol: as §3

[8] = target: T6, mouse IL-13 (mouse, UniProt P20109 26-131, limits assumed); test: SPR (Biacore 8K+), trispecific captured on anti-human Fc on a CM5 chip, 200 nM IL-13 injected for 60 s
T6 construct: also called mu IL-13
T6 sequence (looked up): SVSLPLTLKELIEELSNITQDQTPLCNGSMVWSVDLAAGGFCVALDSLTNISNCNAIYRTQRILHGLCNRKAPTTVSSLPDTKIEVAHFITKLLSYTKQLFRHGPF
Protocol: (§4) All experiments were performed using a Biacore 8K+ instrument (GE HealthCare, Marlborough, MA). Anti-human Fc (Jackson Immunoresearch) or anti-mouse Fc (GE HealthCare, Marlborough, MA) was immobilized on a CM5 sensor chip using a standard amine coupling protocol provided by GE HealthCare. […] The association and dissociation phases were 60 seconds and 300 seconds, respectively. At the end of the dissociation phase, the surface containing anti-human or anti-mouse Fc was regenerated using one 30 second pulse of 3M MgCl₂ followed by one 30 second pulse of 10 mM glycine pH 1.7.

[9] = target: T7, rat IL-13 (rat, UniProt P42203 19-131, limits assumed); test: as above
T7 construct: also called rt IL-13
T7 sequence (looked up): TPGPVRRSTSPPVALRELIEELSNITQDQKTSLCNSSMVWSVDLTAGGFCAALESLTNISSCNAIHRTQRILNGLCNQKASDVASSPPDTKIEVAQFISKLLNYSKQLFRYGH
Protocol: as §4

[10] = target: T8, rat IL-33 (rat, UniProt Q66H70 109-264, limits assumed); test: SPR (Biacore T-200, 37 C, buffer with 3 mM DTT), trispecific captured on Protein A/G on a CM5 chip, 200 nM IL-33 injected for 60 s (concentration from Example 75)
T8 construct: also called rat IL-33 WT
T8 sequence (looked up): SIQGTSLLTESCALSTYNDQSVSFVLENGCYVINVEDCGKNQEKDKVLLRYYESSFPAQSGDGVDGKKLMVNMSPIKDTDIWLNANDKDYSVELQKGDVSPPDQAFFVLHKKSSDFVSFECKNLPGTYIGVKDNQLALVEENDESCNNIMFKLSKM
Protocol: (§5) Experiments were done at 37° C. with a collection rate of 10 Hz using HBS-EP+ pH 7.4, containing 3 mM DTT as running and dilution buffer. […] An anti-rat and mouse positive control antibody M36 (Pfizer, L4295010-051) diluted to 10 μgs/mL was captured on flow cell 2 for 60 sec at 10 μLs/min. Flow cell 1 was used as a reference. Binding was evaluated by injecting 200 nM dilutions of each cytokine over all 4 flow cells for 60 sec at 50 μL/min followed by a 300 sec dissociation. The surface was regenerated with a single 60 sec injection of 10 mM Glycine pH 1.5 at 50 μL/min. The data was double referenced and an overlay of the resulting sensorgrams (FIG. 39) was prepared using Biacore T-200 Analysis Software version 3.2.

[11] = target: T9, murine IL-33 (mouse, UniProt Q8BVZ5 109-266); test: as above
T9 construct: also called mouse IL-33 WT
T9 sequence (looked up): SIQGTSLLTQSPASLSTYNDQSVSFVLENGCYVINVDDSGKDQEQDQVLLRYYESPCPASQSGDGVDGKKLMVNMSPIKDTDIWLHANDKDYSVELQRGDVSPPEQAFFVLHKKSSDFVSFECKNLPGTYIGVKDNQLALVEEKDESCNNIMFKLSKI
Protocol: as §5

[12] = target: recombinant cynomolgus monkey TSLP (Pfizer) (cynomolgus monkey, UniProt A0A7N9CAT7 29-159); test: cell-based or functional assay
[13] = target: T10, biotinylated human TSLP (Pfizer) (human, UniProt Q969D9 29-159, biotinylated (Avi tag by Example 2)); test: KinExA, fixed antigen format, solution affinity, mean
T10 construct: Antigen of the KinExA fixed antigen assay
Protocol: (§6) Samples were prepared in PBS containing 0.1% sodium azide and 1.0 mg/ml BSA. A fixed antigen assay method was used to determine binding affinity. […] Data analysis was performed with the KinExA Pro software version 4.3.11 (Sapidyne). […] The ‘drift correction’ option was selected when responses varied between replicate injections. Two curves were obtained in independent experiments and analyzed using the ‘n-curve analysis’ tool to obtain global best fit values for the KD and active concentration of biotinylated TSLP. The software reports each best fit value along with a 95% confidence interval).

[14] = target: T11, biotinylated cynomolgus monkey TSLP (Pfizer) (cynomolgus monkey, UniProt A0A7N9CAT7 29-159, biotinylated (Avi tag by Example 2)); test: as above
T11 construct: Antigen of the KinExA fixed antigen assay
T11 sequence (A0A7N9CAT7 entry or part of it): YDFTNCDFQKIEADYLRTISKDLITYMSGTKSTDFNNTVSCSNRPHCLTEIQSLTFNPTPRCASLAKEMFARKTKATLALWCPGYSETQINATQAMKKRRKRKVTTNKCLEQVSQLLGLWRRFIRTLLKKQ
Protocol: as §6

T2 sequence (Q0PW92 entry or part of it limits assumed): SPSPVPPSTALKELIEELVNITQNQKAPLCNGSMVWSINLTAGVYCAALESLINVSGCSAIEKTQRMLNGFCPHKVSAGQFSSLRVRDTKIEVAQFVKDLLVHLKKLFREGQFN
Chain of recombinant cynomolgus monkey TSLP (Pfizer) (A0A7N9CAT7 entry or part of it): as the sequence (A0A7N9CAT7 entry or part of it) above
Chain of human IL-13 (P35225 35-146 limits assumed, form in doubt): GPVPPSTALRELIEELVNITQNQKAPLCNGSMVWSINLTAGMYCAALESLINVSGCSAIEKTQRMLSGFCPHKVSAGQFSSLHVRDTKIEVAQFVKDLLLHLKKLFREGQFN

B1: IL13433-1258 (trispecific antibody)
heavy: EVQLVESGGGLVQPGGSLRLSCAASGFTFSSYWMYWVRQAPGKGLEWVAAITPNAGEDYYPESVKGRFTISRDNAKNSLYLQMNSLRAEDTAVYYCARGQYYYTKYSLGYWGQGTLVTVSSASTKGPSVFPLAPSSKSTSGGTAALGCLVKDYFPEPVTVSWNSGALTSGVHTFPAVLQSSGLYSLSSVVTVPSSSLGTQTYICNVNHKPSNTKVDKKVEPKSCRKTHTCPPCPAPEAAGAPSVFLFPPKPKDTLMISRTPEVTCVVVDVSHEDPEVKFNWYVDGVEVHNAKTKPREEQYNSTYRVVSVLTVLHQDWLNGKEYKCKVSNKALPAPIEKTISKAKGQPREPQVYTLPPSREEMTKNQVSLTCLVKGFYPSDIAVEWESNGQPENNYKTTPPVLDSDGSFFLYSRLTVDKSRWQQGNVFSCSVLHEALHSHYTQKSLSLSPGK
chain 1: DIQMTQSPSSLSASVGDRVTITCKASESVDHFGWSLVHWYQQKPGKAPKLLIYRASNLESGVPSRFSGSGSGTDFTLTISSLQPEDFATYYCQQSNEDPWTFGGGTKVEIKRTVAAPSVFIFPPSDEQLKSGTASVVCLLNNFYPREAKVQWKVDNALQSGNSQESVTEQDSKDSTYSLSSTLTLSKADYEKHKVYACEVTHQGLSSPVTKSFNRGECGGGGSEVTLRESGPALVKPTQTLTLTCTFSGFSLSNFGEGLSWIRQPPGKGLEWLAHIYWDDDKRYNPSLKSRLTISKDTSRNQVVLTMTNMDPVDTATYYCARRETVFYWYFDVWGQGTTVTVSSASTKGPSVFPLAPSSKSTSGGTAALGCLVKDYFPEPVTVSWNSGALTSGVHTFPAVLQSSGLYSLSSVVTVPSSSLGTQTYICNVNHKPSNTKVDKKVEPKSCEKTHTCPPCPAPEAAGAPSVFLFPPKPKDTLMISRTPEVTCVVVDVSHEDPEVKFNWYVDGVEVHNAKTKPREEQYNSTYRVVSVLTVLHQDWLNGKEYKCKVSNKALPAPIEKTISKAKGQPREPQVYTLPPSREEMTKNQVSLTCEVKGFYPSDIAVEWESNGQPENNYKTTPPVLDSDGSFFLYSKLTVDKSRWQQGNVFSCSVLHEALHSHYTQKSLSLSPGK
light 1: DIQMTQSPSSLSASVGDRVTITCRASQPIHNHLDWYQQKPGKAPKLLIYFGKNLQEGVPSRFSGSGSGTDFTLTISSLQPEDFATYYCFQYKKGWSFGGGTKVEIKRTVAAPSVFIFPPSDEQLKSGTASVVCLLNNFYPREAKVQWKVDNALQSGNSQESVTEQDSKDSTYSLSSTLTLSKADYEKHKVYACEVTHQGLSSPVTKSFNRGEC
light 2: DIQMTQSPSSLSASVGDRVTITCRASQSVDEEGDSYMNWYQQKPGKAPKLLIYAASNLESGVPSRFSGSGSGTDFTLTISSLQPEDFATYYCQQSNKDPPTFGGGTKVEIKRTVAAPSVFIFPPSDEQLKSGTASVVCLLNNFYPREAKVQWKVDNALQSGNSQESVTEQDSKDSTYSLSSTLTLSKADYEKHKVYACEVTHQGLSSPVTKSFNRGEC
chain 2: EVQLVESGGGLVQPGGSLRLSCAASGFTFSSYAMSWVRQAPGKGLEWVASISSGDTTYYPDSVKGRFTISRDNAKNSLYLQMNSLRAEDTAVYYCARNEGYYFGLTLWGQGTLVTVSSASTKGPSVFPLAPSSKSTSGGTAALGCLVKDYFPEPVTVSWNSGALTSGVHTFPAVLQSSGLYSLSSVVTVPSSSLGTQTYICNVNHKPSNTKVDKKVEPKSC
notes: Tri-Fab-Fc: SFab HC(3) IL-33, DFab LC(1)-HC(2) IL-13/IL-4, SFab LC(3), DFab LC(2), modified Fd(1); EE/RR, LS
fold IL-4 neutralization activity over dupilumab (monocyte CD23 bioassay) [1]: ~10 fold | fold lower potency than mAb IL4-1040 (monocyte CD23 bioassay) [1]: ~3.1 fold | fold reduced neutralization compared to the human cytokine (monocyte CD23 bioassay) [2]: ~4.5 fold | fold IL-13 neutralization activity over dupilumab (monocyte CD23 bioassay) [3]: 7.9 fold | fold lower potency than IL13-0001 (monocyte CD23 bioassay) [3]: ~2.7 fold | fold of the human IL-13 affinity value [4]: ≤ 2 fold | fold weaker than the human IL-4 affinity value [5]: ~6.2 fold | binding result [6]: no binding (tested: 200 nM) | binding result [7]: no binding (tested: 200 nM) | binding result [8]: no binding (tested: 200 nM) | binding result [9]: no binding (tested: 200 nM) | binding result [10]: no binding (tested: 200 nM) | binding result [11]: no binding (tested: 200 nM)

B2: IL413TSLP-1024 (antibody)
heavy: not shown
light 1: SYVLTQPPSVSVAPGQTARITCGGNNLGSKSVHWYQQKPGQAPVLVVYDDKDRPSWIPERFSGSNSGNTATLTISRGEAGDEADYYCQVWDSKSDHVVFGGGTKLTVLGQPKAAPSVTLFPPSSEELQANKATLVCLISDFYPGAVTVAWKADSSPVKAGVETTTPSKQSNNKYAASSYLSLTPEQWKSHRSYSCQVTHEGSTVEKTVAPTECS
chain 1: DIQMTQSPSSLSASVGDRVTITCKASESVDHFGWSLVHWYQQKPGKAPKLLIYRASNLESGVPSRFSGSGSGTDFTLTISSLQPEDFATYYCQQSNEDPWTFGGGTKVEIKRTVAAPSVFIFPPSDEQLKSGTASVVCLLNNFYPREAKVQWKVDNALQSGNSQESVTEQDSKDSTYSLSSTLTLSKADYEKHKVYACEVTHQGLSSPVTKSFNRGECGGGGSEVTLRESGPALVKPTQTLTLTCTFSGFSLSNFGEGLSWIRQPPGKGLEWLAHIYWDDDKRYNPSLKSRLTISKDTSRNQVVLTMTNMDPVDTATYYCARRETVFYWYFDVWGQGTTVTVSSASTKGPSVFPLAPSSKSTSGGTAALGCLVKDYFPEPVTVSWNSGALTSGVHTFPAVLQSSGLYSLSSVVTVPSSSLGTQTYICNVNHKPSNTKVDKKVEPKSCEKTHTCPPCPAPEAAGAPSVFLFPPKPKDTLMISRTPEVTCVVVDVSHEDPEVKFNWYVDGVEVHNAKTKPREEQYNSTYRVVSVLTVLHQDWLNGKEYKCKVSNKALPAPIEKTISKAKGQPREPQVYTLPPSREEMTKNQVSLTCEVKGFYPSDIAVEWESNGQPENNYKTTPPVLDSDGSFFLYSKLTVDKSRWQQGNVFSCSVLHEALHSHYTQKSLSLSPGK
light 2: DIQMTQSPSSLSASVGDRVTITCRASQSVDEEGDSYMNWYQQKPGKAPKLLIYAASNLESGVPSRFSGSGSGTDFTLTISSLQPEDFATYYCQQSNKDPPTFGGGTKVEIKRTVAAPSVFIFPPSDEQLKSGTASVVCLLNNFYPREAKVQWKVDNALQSGNSQESVTEQDSKDSTYSLSSTLTLSKADYEKHKVYACEVTHQGLSSPVTKSFNRGEC
chain 2: EVQLVESGGGLVQPGGSLRLSCAASGFTFSSYAMSWVRQAPGKGLEWVASISSGDTTYYPDSVKGRFTISRDNAKNSLYLQMNSLRAEDTAVYYCARNEGYYFGLTLWGQGTLVTVSSASTKGPSVFPLAPSSKSTSGGTAALGCLVKDYFPEPVTVSWNSGALTSGVHTFPAVLQSSGLYSLSSVVTVPSSSLGTQTYICNVNHKPSNTKVDKKVEPKSC
notes: RR-EE, LS; monovalent for TSLP
IC50, TARC production bioassay, Human Whole Blood (median) [12]: 0.0327 nM | IC50, TARC production bioassay, Peripheral Blood Monocytes (median) [12]: 0.03 nM | Kd [13]: 0.00303 nM | Kd [14]: 0.00631 nM
